IntAct's records for PubMed 20861839

B1: Symplekin (Homo sapiens), Q92797 (parent)
chain: MASGSGDSVTRRSVASQFFTQEEGPGIDGMTTSERVVDLLNQAALITNDSKITVLKQVQELIINKDPTLLDNFLDEIIAFQADKSIEVRKFVIGFIEEACKRDIELLLKLIANLNMLLRDENVNVVKKAILTMTQLYKVALQWMVKSRVISELQEACWDMVSAMAGDIILLLDSDNDGIRTHAIKFVEGLIVTLSPRMADSEIPRRQEHDISLDRIPRDHPYIQYNVLWEEGKAALEQLLKFMVHPAISSINLTTALGSLANIARQRPMFMSEVIQAYETLHANLPPTLAKSQVSSVRKNLKLHLLSVLKHPASLEFQAQITTLLVDLGTPQAEIARNMPSSKDTRKRPRDDSDSTLKKMKLEPNLGEDDEDKDLEPGPSGTSKASAQISGQSDTDITAEFLQPLLTPDNVANLVLISMVYLPEAMPASFQAIYTPVESAGTEAQIKHLARLMATQMTAAGLGPGVEQTKQCKEEPKEEKVVKTESVLIKRRLSAQGQAISVVGSLSSMSPLEEEAPQAKRRPEPIIPVTQPRLAGAGGRKKIFRLSDVLKPLTDAQVEAMKLGAVKRILRAEKAVACSGAAQVRIKILASLVTQFNSGLKAEVLSFILEDVRARLDLAFAWLYQEYNAYLAAGASGSLDKYEDCLIRLLSGLQEKPDQKDGIFTKVVLEAPLITESALEVVRKYCEDESRTYLGMSTLRDLIFKRPSRQFQYLHVLLDLSSHEKDKVRSQALLFIKRMYEKEQLREYVEKFALNYLQLLVHPNPPSVLFGADKDTEVAAPWTEETVKQCLYLYLALLPQNHKLIHELAAVYTEAIADIKRTVLRVIEQPIRGMGMNSPELLLLVENCPKGAETLVTRCLHSLTDKVPPSPELVKRVRDLYHKRLPDVRFLIPVLNGLEKKEVIQALPKLIKLNPIVVKEVFNRLLGTQHGEGNSALSPLNPGELLIALHNIDSVKCDMKSIIKATNLCFAERNVYTSEVLAVVMQQLMEQSPLPMLLMRTVIQSLTMYPRLGGFVMNILSRLIMKQVWKYPKVWEGFIKCCQRTKPQSFQVILQLPPQQLGAVFDKCPELREPLLAHVRSFTPHQQAHIPNSIMTILEASGKQEPEAKEAPAGPLEEDDLEPLTLAPAPAPRPPQDLIGLRLAQEKALKRQLEEEQKLKPGGVGAPSSSSPSPSPSARPGPPPSEEAMDFREEGPECETPGIFISMDDDSGLTEAALLDSSLEGPLPKETAAGGLTLKEERSPQTLAPVGEDAMKTPSPAAEDAREPEAKGNS
B2: RNA polymerase II subunit A C-terminal domain phosphatase SSU72 (Homo sapiens), Q9NP77-1 (parent)
chain: MPSSPLRVAVVCSSNQNRSMEAHNILSKRGFSVRSFGTGTHVKLPGPAPDKPNVYDFKTTYDQMYNDLLRKDKELYTQNGILHMLDRNKRIKPRPERFQNCKDLFDLILTCEERVYDQVVEDLNSREQETCQPVHVVNVDIQDNHEEATLGAFLICELCQCIQHTEDMENEIDELLQEFEEKSGRTFLHTVCFY
partner: B1 chain

Variants of: B1
Conditions: with SSU72, Q9NP77-1

| Variant | effect of a mutation on the interaction |
| --- | --- |
| K185A | disrupting interaction |

Variants of: B2
Conditions: with sympk_human SYMPK

| Variant | effect of a mutation on the interaction |
| --- | --- |
| T190A;V191A;F193A | disrupting interaction |
